“Also recorded” adds a separate entry of the source.
B1: Q11H (protein)
chain: MPQEARTPQQHVTADEVGDWYDKFGEVYHLTLGESVHCGLWFPPDAPVPQDMELVTMSSQAQDRFTDYLIETLDPKAGQHLLDIGCGTGRPALKAARQRGIAVTGVAVSKEQIAAANRLAAGHGLTERLTFEVADAMRLPYEDESFDCAWAIESLDHMDRAKALGEAWRVLKPGGDLLVAEEVVTEELTEPETALFETLFALNVPPRLGEFFDIVSGAGFHTLSLKDLSADLAMTMNVFALGVYSRRAEFTERFGAEFVDGLLAGLGSAQETVIRKTRFFMATLRKPAV
modifications: Modified from pMT1
B2: D176V (protein)
chain: MPQEARTPQQQVTADEVGDWYDKFGEVYHLTLGESVHCGLWFPPDAPVPQDMELVTMSSQAQDRFTDYLIETLDPKAGQHLLDIGCGTGRPALKAARQRGIAVTGVAVSKEQIAAANRLAAGHGLTERLTFEVADAMRLPYEDESFDCAWAIESLDHMDRAKALGEAWRVLKPGGVLLVAEEVVTEELTEPETALFETLFALNVPPRLGEFFDIVSGAGFHTLSLKDLSADLAMTMNVFALGVYSRRAEFTERFGAEFVDGLLAGLGSAQETVIRKTRFFMATLRKPAV
modifications: Modified from pMT1
B3: D176R (protein)
chain: MPQEARTPQQQVTADEVGDWYDKFGEVYHLTLGESVHCGLWFPPDAPVPQDMELVTMSSQAQDRFTDYLIETLDPKAGQHLLDIGCGTGRPALKAARQRGIAVTGVAVSKEQIAAANRLAAGHGLTERLTFEVADAMRLPYEDESFDCAWAIESLDHMDRAKALGEAWRVLKPGGRLLVAEEVVTEELTEPETALFETLFALNVPPRLGEFFDIVSGAGFHTLSLKDLSADLAMTMNVFALGVYSRRAEFTERFGAEFVDGLLAGLGSAQETVIRKTRFFMATLRKPAV
modifications: Modified from pMT1
B4: P191V (protein)
chain: MPQEARTPQQQVTADEVGDWYDKFGEVYHLTLGESVHCGLWFPPDAPVPQDMELVTMSSQAQDRFTDYLIETLDPKAGQHLLDIGCGTGRPALKAARQRGIAVTGVAVSKEQIAAANRLAAGHGLTERLTFEVADAMRLPYEDESFDCAWAIESLDHMDRAKALGEAWRVLKPGGDLLVAEEVVTEELTEVETALFETLFALNVPPRLGEFFDIVSGAGFHTLSLKDLSADLAMTMNVFALGVYSRRAEFTERFGAEFVDGLLAGLGSAQETVIRKTRFFMATLRKPAV
modifications: Modified from pMT1
B5: D176Y (protein)
chain: MPQEARTPQQQVTADEVGDWYDKFGEVYHLTLGESVHCGLWFPPDAPVPQDMELVTMSSQAQDRFTDYLIETLDPKAGQHLLDIGCGTGRPALKAARQRGIAVTGVAVSKEQIAAANRLAAGHGLTERLTFEVADAMRLPYEDESFDCAWAIESLDHMDRAKALGEAWRVLKPGGYLLVAEEVVTEELTEPETALFETLFALNVPPRLGEFFDIVSGAGFHTLSLKDLSADLAMTMNVFALGVYSRRAEFTERFGAEFVDGLLAGLGSAQETVIRKTRFFMATLRKPAV
modifications: Modified from pMT1
B6: D159L (protein)
chain: MPQEARTPQQQVTADEVGDWYDKFGEVYHLTLGESVHCGLWFPPDAPVPQDMELVTMSSQAQDRFTDYLIETLDPKAGQHLLDIGCGTGRPALKAARQRGIAVTGVAVSKEQIAAANRLAAGHGLTERLTFEVADAMRLPYEDESFDCAWAIESLDHMLRAKALGEAWRVLKPGGDLLVAEEVVTEELTEPETALFETLFALNVPPRLGEFFDIVSGAGFHTLSLKDLSADLAMTMNVFALGVYSRRAEFTERFGAEFVDGLLAGLGSAQETVIRKTRFFMATLRKPAV
modifications: Modified from pMT1
B7: Q60K (protein)
chain: MPQEARTPQQQVTADEVGDWYDKFGEVYHLTLGESVHCGLWFPPDAPVPQDMELVTMSSRAQDRFTDYLIETLDPKAGQHLLDIGCGTGRTALKAARQRGIAVTGVAVSKEQIAAANRLAAGHGLTERLTFEVADAMRLPYEDESFDCAWAIESLCHMDRAKALGEAWRVLKPGGDLLVAEEVVTEELTEPETALFETLFALNVPPRLGEFFDIVSGAGFHTLSLKDLSANLAMTMNVFALGVYSRRAEFTERFGAEFVDGLLAGLGSAQETVIRKTRFFMATLRKPAV
modifications: Modified from pMT1
B8: D176K (protein)
chain: MPQEARTPQQQVTADEVGDWYDKFGEVYHLTLGESVHCGLWFPPDAPVPQDMELVTMSSQAQDRFTDYLIETLDPKAGQHLLDIGCGTGRPALKAARQRGIAVTGVAVSKEQIAAANRLAAGHGLTERLTFEVADAMRLPYEDESFDCAWAIESLDHMDRAKALGEAWRVLKPGGKLLVAEEVVTEELTEPETALFETLFALNVPPRLGEFFDIVSGAGFHTLSLKDLSADLAMTMNVFALGVYSRRAEFTERFGAEFVDGLLAGLGSAQETVIRKTRFFMATLRKPAV
modifications: Modified from pMT1
B9: D176L, A248V: pMT12 with D176L and A248V (protein)
chain: MPQEARTPQQQVTADEVGDWYDKFGEVYHLTLGESVHCGLWFPPDAPVPQDMELVTMSSQAQDRFTDYLIETLDPKAGQHLLDIGCGTGRPALKAARQRGIAVTGVAVSKEQIAAANRLAAGHGLTERLTFEVADAMRLPYEDESFDCAWAIESLDHMDRAKALGEAWRVLKPGGLLLVAEEVVTEELTEPETALFETLFALNVPPRLGEFFDIVSGAGFHTLSLKDLSADLAMTMNVFALGVYSRRVEFTERFGAEFVDGLLAGLGSAQETVIRKTRFFMATLRKPAV
modifications: Modified from pMT1
B10: E190Q (protein)
chain: MPQEARTPQQQVTADEVGDWYDKFGEVYHLTLGESVHCGLWFPPDAPVPQDMELVTMSSQAQDRFTDYLIETLDPKAGQHLLDIGCGTGRPALKAARQRGIAVTGVAVSKEQIAAANRLAAGHGLTERLTFEVADAMRLPYEDESFDCAWAIESLDHMDRAKALGEAWRVLKPGGDLLVAEEVVTEELTQPETALFETLFALNVPPRLGEFFDIVSGAGFHTLSLKDLSADLAMTMNVFALGVYSRRAEFTERFGAEFVDGLLAGLGSAQETVIRKTRFFMATLRKPAV
modifications: Modified from pMT1
B11: D176L: pMT12 with D176L (protein)
chain: MPQEARTPQQQVTADEVGDWYDKFGEVYHLTLGESVHCGLWFPPDAPVPQDMELVTMSSQAQDRFTDYLIETLDPKAGQHLLDIGCGTGRPALKAARQRGIAVTGVAVSKEQIAAANRLAAGHGLTERLTFEVADAMRLPYEDESFDCAWAIESLDHMDRAKALGEAWRVLKPGGLLLVAEEVVTEELTEPETALFETLFALNVPPRLGEFFDIVSGAGFHTLSLKDLSADLAMTMNVFALGVYSRRAEFTERFGAEFVDGLLAGLGSAQETVIRKTRFFMATLRKPAV
modifications: Modified from pMT1

Test: In-vivo cis-α-irone production screening of pMT7 and pMT12 mutants
Assay type: cell-based, Escherichia coli
Conditions: for in-vivo production of cis-α-irone (in words): single mutations vs parent (pMT7 or pMT12); for Fold change in in-vivo cis-α-irone production: mutations made to pMT12, normalized to pMT12 (=1)
Source text: Q60 was identified as another possible mutation site.
FIGS. 24a and 24b show the in-vivo and in-vitro cis-α-irone production of other possible single mutations to pMT12. The in-vitro results in FIG. 24b validate the mutations and in-vivo results in FIG. 24a. The mutations in FIG. 24 include Q11H (SEQ ID No. 23), V12R (SEQ ID No. 24), A95C (SEQ ID No. 25), H123Q (SEQ ID No. 26), E127T (SEQ ID No. 27), M137T (SEQ ID No. 28), D176V (SEQ ID No. 29), D176Y (SEQ ID No. 30). P191S (SEQ ID No. 31), P191V (SEQ ID No. 32), F212L (SEQ ID No. 33), S268H (SEQ ID No. 34), AND T272A (SEQ ID No. 35). The screening results in FIGS. 24 and 25 are semi-quantitative to identify beneficial mutants that give greater than one-fold change of irone production as compared to pMT12.
FIGS. 25a to 25c (and Table 4) show the in-vivo testing results of other possible mutations that may be made to pMT12 to improve its in-vivo production of cis-α-irone. FIGS. 25a to 25c each include two dotted lines to account for a 10% error bar to show the normalized fold change of 0.9 and 1.1.
The four plasmids were transformed into E. coli BL21 (DE3), ΔaroA, ΔaroB, ΔaroC, ΔserC or E. coli BL21 (DE3), ΔaroA, ΔaroB, ΔaroC, ΔserC, ΔmetJ strains and plated on Agar plate containing LB media (10 g, tryptone. 5 g, yeast extract. 10 g, NaCl) supplemented with appropriate antibiotics (100 mg/L ampicillin, 34 mg/L chloramphenicol, 50 mg/L kanamycin, and 100 mg/L spectinomycin). One colony was picked and inoculate into LB media with antibiotics. 1% of overnight culture was inoculated into 1 ml fresh auto-inducing chemically defined media. The chemical media contains carbon source solution: 0.5 g/L glucose, 10 g/L glycerol; inducer: 30 mM lactose and base media: 2 g/L ammonium sulfate, 4.2 g/L KH2PO4, 11.24 g/L K2HPO4, 1.7 g/L citric acid, 0.5 g/L MgSO4, and 10 mL/L trace element solution. The trace element solution (100×) contained 0.25 g/L CoCl2·6H2O, 1.5 g/L MnSO4·4H2O, 0.15 g/L CuSO4·2H2O, 0.3 g/L H3BO3, 0.25 g/L Na2MoO4·2H2O, 0.8 g/L Zn(CH3COO)2, 5 g/L Fe(III) citrate, and 0.84 g/L ethylenediaminetetra-acetic acid (EDTA) at pH 8.0. The culture was grown at 28° C. for 3 days and the products were extracted with 1 ml hexane for GCMS analysis. An example of a fed-batch process for α-ionone Is briefly described, overnight culture was inoculated into 2 L chemical media comprising the base media and 5 g/L glucose, at 37° C. and 30% DO. pH was controlled at 7 with base solution (14% ammonia and 0.5 M NaOH). Feed media (500 g/L glucose and 5 g/L MgSO4) was added into bioreactor once OD600 reached 5, at a rate of 7.15-25.75 g/h glucose for about 4-5 h until OD600 reached ˜30-40. Subsequently, 0.1 mM IPTG was added to induce the production, and feeding rate was kept at a constant rate of 10 g/h glucose, and the temperature was reduced to 30° C. DO was adjusted to 2% or 10%. Feeding was stopped at 113 h when 2 L feeding media was finished, but the culture was further incubated for 24 h. To capture the evaporated products, the exhaust was connected to 25 ml sunflower oil.

Molecule | in-vivo production of cis-α-irone (in words) | Fold change in in-vivo cis-α-irone production
B1 | significant increase | 
B2 | significant increase; also recorded: significant improvement | 2.24
B3 | significant improvement | 1.80
B4 | significant increase | 1.26
B5 | significant increase | 
B6 | significant improvement | 1.55
B7 | increased cis-α-irone production in-vivo | 
B8 | significant improvement | 1.90
B9 | significant improvement | 3.14
B10 | significant improvement | 2.90
B11 | significant improvement | 2.52
